The subject of series [1] is AcrIIA1 NTD (Listeria phage A006). Description: MST.
Series [2] relates to AcrIIA1 (phage A006) (Listeria phage A006). Description: MST. The conditions noted are these: 34 nM stated in Example 5 (p151).
Series [3] has as its target Listeria monocytogenes Cas9 (LmoCas9) (Listeria monocytogenes). As to the kind of experiment: cell-based or functional assay.
Series [4] addresses T1, Aca1 (Pseudomonas aeruginosa phage JBD30).
T1 chain: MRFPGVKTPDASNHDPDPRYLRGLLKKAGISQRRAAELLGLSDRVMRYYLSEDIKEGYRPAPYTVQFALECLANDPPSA
As to the kind of experiment: EMSA; two shifted bands; 10-250 nM Aca1. The conditions noted are these: tags: p15TV-L expression, Ni-NTA purified; chain copies: 2 (inferred; HTH proteins stated generally dimeric). As to the method:
(§1) FIG. 3E: Electrophoretic mobility shift assays (EMSAs) were performed utilizing a fragment of dsDNA with the sequence shown, which encompasses the acr promoter region. The IR1 and IR2 mutants contained the triple and quadruple base substitutions indicated under the DNA sequence. Representative non-denaturing polyacrylamide gels stained with SYBR gold are shown. Purified Aca1 was added to the DNA at concentrations of 10 nM, 50 nM, 100 nM and 250 nM. […] FIG. 3F: The anti-CRISPR promoter region from phage JBD30 either wild-type (WT), or bearing IR1 and/or IR2 mutations was cloned upstream of a promoterless lacZ gene. β-galactosidase activity was measured in PA14 (−Aca1) or in a JBD30 lysogen (+Aca1). The mean β-galactosidase activity relative to the wild-type promoter is shown, with error bars representing standard error of the mean (n≥3). FIG. 3G: Ten-fold dilutions of lysates of anti-CRISPR phage JBD30 carrying the indicated inverted repeat mutations were applied to lawns of CRISPR-Cas intact PA14 or CRISPR deleted PA14 (PA14ΔCRISPR). Representative images from three biological replicates are shown.
Aca1 acts on the acr promoter. Aca1 proteins are bioinformatically predicted to contain a helix-turn-helix (HTH) DNA-binding motif (FIG. 8A). HTH-containing proteins are generally dimeric and bind to inverted repeat sequences. […]

Series [5] addresses T2, Aca2 ZF40 (Pectobacterium phage ZF40, UniProt H9C180 H9C180:1-116).
T2 sequence: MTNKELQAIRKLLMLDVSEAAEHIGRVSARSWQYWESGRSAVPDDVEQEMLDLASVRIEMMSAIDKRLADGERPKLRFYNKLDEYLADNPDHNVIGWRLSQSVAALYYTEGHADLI
Description: cell_activity; lacZ reporter in E. coli; text listing of SEQ 6 differs from the Table 8 sequence for this accession. The note with it: chain copies: 2. From the text: By aligning the intergenic regions found immediately upstream of anti-CRISPR genes associated with aca2, we detected a conserved inverted repeat sequence that could act as a binding site for Aca2 proteins (FIG. 11B). […] To investigate the functions of Aca2 and Aca3, the acrlaca regions from Pectobacterium phage ZF40 and from N. meningitidis strain 2842STDY5881035 were investigated as representatives of the Aca2 and Aca3 families, respectively. The putative promoter regions of the anti-CRISPR genes in these two operons (FIGS. 11B and 11D) were cloned upstream of a promoterless lacZ reporter gene carried on a plasmid. When assayed in E. coli, both regions mediated robust transcription of the reporter as detected by measuring β-galactosidase activity in cell extracts (FIG. 7).
β-galactosidase reporter assays. β-galactosidase reporter plasmids were transformed into DH5a and PA14. Overnight cultures of transformed cells were subcultured 1:100 and grown for ˜3 hours with shaking (OD₆₀₀=0.4-0.7). β-galactosidase activity was then quantified using a method derived from Zhang and Bremer, 1995. […] The reaction was stopped with the addition of 700 μL of 1 M Na₂CO₃, A420 and A550 were measured, and Miller Units were calculated.

The target of series [6] is T3, Aca1 (in cell) (Pseudomonas aeruginosa phage JBD30).
T3 chain: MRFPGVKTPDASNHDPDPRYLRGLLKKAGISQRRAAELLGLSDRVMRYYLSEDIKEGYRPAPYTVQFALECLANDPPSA
Description: cell_activity; lacZ reporter in P. aeruginosa JBD30 lysogen.

Series [7] has as its target T4, Aca1 R44A (Pseudomonas aeruginosa phage JBD30, R44A).
T4 chain: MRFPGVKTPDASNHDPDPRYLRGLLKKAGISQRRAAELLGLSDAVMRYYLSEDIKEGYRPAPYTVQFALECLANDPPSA
As to the kind of experiment: EMSA; binding completely abolished; 10-500 nM. The note with it: tags: p15TV-L expression, Ni-NTA purified; chain copies: 2 (inferred). As to the method:
FIG. 4A: Representative electrophoretic mobility shift assays with indicated Aca1 mutants using the 110 bp upstream region from phage JBD30 as a substrate. Purified protein was added at concentrations of 10 nM, 50 nM, 100 nM, 250 nM and 500 nM. […] Non-denaturing acrylamide gels stained with SYBR gold are shown. FIG. 4B: The anti-CRISPR promoter region from phage JBD30 was cloned upstream of a promoterless lacZ gene. β-galactosidase activity was measured in a wild-type JBD30 lysogen (WT Aca1), JBD30 Aca1 mutant lysogens as indicated, and wild-type PA14 with no prophage (−). The mean from three independent experiments relative to the wild-type Aca1 JBD30 lysogen is shown, with error bars representing the standard error of the mean. FIG. 4C: Lysates of phage JBD30 (WT or Aca1R44A mutant) were spotted in 10-fold serial dilutions on bacterial lawns of wild-type P. aeruginosa PA14, a CRISPR deletion version of PA14 (PA14ΔCRISPR), or on the deletion strain bearing a plasmid that expresses Aca1. These phages are targeted by the CRISPR-Cas system in the absence of anti-CRISPR activity. Representative images from three biological replicates are shown. […] FIG. 4E: The transcript levels of the acrIF1 and aca1 genes in phages bearing anti-CRISPR promoter operator mutants and aca mutants were determined by RT-qPCR. […]

Series [8] has as its target T1, Aca1. Description: EMSA; 10 mM HEPES pH 7.5, 1 mM MgCl2, 20 mM KCl, 1 mM TCEP, 6% glycerol, on ice; second shifted band at higher concentrations. The note with it: tags: p15TV-L expression, Ni-NTA purified; chain copies: 2 (inferred; HTH proteins stated generally dimeric). From the text:
Aca1 acts on the acr promoter. Aca1 proteins are bioinformatically predicted to contain a helix-turn-helix (HTH) DNA-binding motif (FIG. 8A). HTH-containing proteins are generally dimeric and bind to inverted repeat sequences. We identified two such sites with very similar sequences which we refer to as IR1 and IR2, flanking the −35 region of the acrIF1 promoter (FIG. 3B). To determine whether Aca1 could bind to the anti-CRISPR promoter region, purified Aca1 was mixed with a 110 bp dsDNA fragment containing the acr promoter and an electrophoretic mobility shift assay (EMSA) was performed. […] At higher Aca1 concentrations, a second shifted band was observed, consistent with the presence of two Aca1 binding sites within this fragment.
Electrophoretic mobility shift assay. Varying concentrations of purified Aca1 or Aca1 mutants were mixed with 20 ng of target DNA (gel purified PCR product or annealed oligo) in binding buffer (10 mM HEPES pH 7.5, 1 mM MgCl₂, 20 mM KCl, 1 mM TCEP, 6% v/v glycerol) and incubated on ice for 20 minutes. The DNA-protein complexes were separated by gel electrophoresis at 100 V on a 6% native 0.5× TBE polyacrylamide gel. Gels were stained at room temperature with Sybr gold (Invitrogen) and visualized according to the supplier's instructions. Bands were quantified using Image Lab 6.0 software (BioRad). […]

For series [9], the target named is T1, Aca1. Description: EMSA; no shift up to 250 nM. The note with it: tags: p15TV-L expression, Ni-NTA purified; chain copies: 2 (inferred; HTH proteins stated generally dimeric). As for the experimental part:
as §1, with “Representative” for “FIG. 3E: Electrophoretic mobility shift assays (EMSAs) were performed utilizing a fragment of dsDNA with the sequence shown, which encompasses the acr promoter region. The IR1 and IR2 mutants contained the triple and quadruple base substitutions indicated under the DNA sequence. Representative”
Aca1 acts on the acr promoter. Aca1 proteins are bioinformatically predicted to contain a helix-turn-helix (HTH) DNA-binding motif (FIG. 8A). HTH-containing proteins are generally dimeric and bind to inverted repeat sequences. We identified two such sites with very similar sequences which we refer to as IR1 and IR2, flanking the −35 region of the acrIF1 promoter (FIG. 3B). […]

The values below come from patent US20220243213A1, “ANTI-CRISPR INHIBITORS” (THE REGENTS OF THE UNIVERSITY OF CALIFORNIA, published 2022).

Turning to “phage A006 anti-CRISPR promoter palindrome”, the Kd in series [1] stood at 0.028 µM; in series [2] it was 0.026 µM.
“AcrIIA1 (full-length, from Listeria phage ΦA006)” returned a Nanoluciferase (NLuc) expression from the anti-CRISPR locus promoter, fold change in RLU, ΦA006acr::nluc lysogen in series [3] of 5 fold.

B1: acrIF1 promoter IR1-IR2 oligo WT (dsDNA)
DNA 1: ACAAGCGGCACACTGTGCCTATTGCGAATTAGGCACAATGTGCCTAATCTAACG
DNA 2: CGTTAGATTAGGCACATTGTGCCTAATTCGCAATAGGCACAGTGTGCCGCTTGT
For B1, the binding result in series [4] is given as “binds”.

B2: ZF40 acrIF8 promoter region (dsDNA)
DNA 1: AGCCTCACCTCCGGCGTTGCCGTGGCGCTGTGTGATTTACAGGAAATAAAAAGGCCACGAATGCGGCCTTAGCGATTAAAAAATATGAAATGCCTTGCTTGTTCGCGATTGCGAACATATAATTTATTCATCGGTTCGAG
DNA 2: CTCGAACCGATGAATAAATTATATGTTCGCAATCGCGAACAAGCAAGGCATTTCATATTTTTTAATCGCTAAGGCCGCATTCGTGGCCTTTTTATTTCCTGTAAATCACACAGCGCCACGGCAACGCCGGAGGTGAGGCT
Consider B2, for which the activity in series [5] was 100 fold repression.

B3: JBD30 acrIF1 promoter 110 bp upstream region (dsDNA)
DNA 1: TGGCCACTTTCGGACAAGCGGCACACTGTGCCTATTGCGAATTAGGCACAATGTGCCTAATCTAACGTCATGCCAGCCACAACGGCGAGGCGCCAACAAGGATTCAAACC
DNA 2: GGTTTGAATCCTTGTTGGCGCCTCGCCGTTGTGGCTGGCATGACGTTAGATTAGGCACATTGTGCCTAATTCGCAATAGGCACAGTGTGCCGCTTGTCCGAAAGTGGCCA
Consider B3, for which the activity in series [6] turned out to be 5 fold repression. Moreover, the binding result in series [7] is recorded as “no binding”. For the same molecule, in [8], the Kd was ~0.05 µM.

B4: IR1+IR2 mutant oligo (dsDNA)
DNA 1: ACAAGCGTCGTACTGTGCCTATTGCGAGCTAGTCCCAATGTGCCTAATCTAACG
DNA 2: CGTTAGATTAGGCACATTGGGACTAGCTCGCAATAGGCACAGTACGACGCTTGT
Turning to B4, the binding result in series [9] is given as “no binding”.
